Measured values reported in the domain aggregation screens of Martell et al. (2025).

Test: soluble fraction after stress (log2 fold change); higher = more stays soluble; pooled small domains, quantitative proteomics
Conditions: stress: 75 degC
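Further: 20 min heating vs room temperature control held 20 min.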

| Sequence | soluble fraction (log2) |
| --- | --- |
| HMTKRTVKSVARKIADFNRERHRMPTYEEMLTLLAVRSKSVVHFWMNKLLQEGILEKDESGHLTFV | -0.179 |
| HMTKSSAYLSAEKLINKKQYSDAIVKLNDALVTDSKNADIYNYLGFSHRKLGKMEDAAFFYNKALE | 0.0234 |
| HMTLDDSFYQKADEIIANHTKEERSLIPIIQDIQAEYRYLPPELLTYVAKEIGITDARAYSVASFYENFS | -0.521 |
| HMTLDEDYFYYTLKAKEGYYRLYKKLGVDRKIIDSLNPNLKEMGLQVGMVIRVPKSQTSDLSVKNSLLVE | -1.64 |
| HMTLHDLFPQAVEFVSEKEMISTAELQRKLMISYNSAAKIIDQLLHVDFIQKSESAGKYSVLIK | -2.66 |
| HMTLNTQLFTWKKGVRVGEDDQGNIYYRTKDDKRRWVIFTGETEATKVSPDWHGWLHRTWATPPNK | -2.27 |
| HMTLPGQDFIRASQLKELIAKYDKQYYEEGVSDISDAEYDRLYEEYLEFENKYPELKDMADAPTKRV | 0.659 |
| HMTLREQISALIKQGKLTQAKLARETGVNGGALSAWINGKYTGNVETVEEPIKHWMALNERK | -0.342 |
| HMTLSVRQRMSQIINKIDVSNFTDFTKLFDINEGRLGVAVTFLAILELLKDTMIDVIQNEEFAPLHIKVSS | 0.128 |
| HMTMIIQLDKNITQEQRQFLVEELNRLSISPNFVSTQFTNYIVGIPKKEFDIRLIGNLPGIADIHFV | -1.58 |
| HMTMKVTADILNMRSEASTNSDIVTKLKKDDELKVIEETKDDDGVTWVKVDFNGQVGFVSKEFLG | 0.237 |
| HMTMLLEYNVSRSSKWMNKTIMDAEIPDDILIVMIKRNGQVIVPKGSTEILENDILVLSGNNLNEVALG | -3.02 |
| HMTMNYYDILSIKRDATLEEIQKAYKEKSFQFHPDFNKGISDDSMFRIIKEAYETLSDTEKRNQYDASLNK | 0.45 |
| HMTMQTAEQESRLEQKLIDLSVGIDRFEGYSRPHGQLIASIADRIGTRLGMAAHDRFYMQQAAL | 0.203 |
| HMTNADRFIGEEAMVIKKIDDINNDGQVKIAGQVWSAVSEDKSPLEEGTIVKVIAIRGVKLVVEPVS | -0.369 |
| HMTNALDMMKTMDSDAYTKYQKISKESSNEDRQLNELKYITNWYAGAVKKNPSMVDDYEKQKEADS | 0.302 |
| HMTNELTEIFNSIRLTKKQKELLQSNYLSLRETYFLQGKTAFNLKFKNIAGLGKSTKKVLLEFFEESIE | -3.15 |
| HMTNIDIEKSIKNTITANYDDVLNYHNEDDNKTFASGDSRYSFDYDEKTKTLIVFTNSKVDAVFVDGIKKK | 0.308 |
| HMTNISDYILEEYYKNVYPNDLNTKRIVIPNKYEEYAGKYTYITIARMVTYEHDAKKALKVLHQQAT | -0.307 |
| HMTNKYSSLVIGTVKTIMEEDQYKNLMGPPLKKEIIKQVDKFTNALPIEFDQNDKDFYVKKILINL | -0.377 |
| HMTNLKALRESKGVSQQTVADYLGITRQAYGNYETGKRQADYAALLRLAAFFGVSVDALLQP | -1.18 |
| HMTNNDIIRRVRYLFNFSDKQVIELFKLANETVSIEHVSGWLKKEEDPTLIEISDRDLAVFLNGLII | 0.557 |
| HMTNQEFNEVFKLLLAAYPNTKDKESVATIYFLTIANELTKKEFAEAVVKILKTRKSGFIPQPAEILEVAK | -2.54 |
| HMTNSAGIERFLASGAIDGVGPAMARRIVEHFGTEALRIIESVPHRLREISGIGPKTAEKIASSYMRQ | -1.15 |
| HMTNTDALINRAAKVVEEINPDKNTGRVSIDGDLWRAKSSSGELIEQNKQVIVISIESTIVTVKI | -0.228 |
| HMTNTWNNIVERNDLFFKKFTNTPFNGKIETYWPNGNLKETGIITDGKKDNLWEYYYENGNPKEVEF | -0.876 |
| HMTNVFSIIGKKALVIKDIDPIHSSGQIKLNGEVWSAETENDEIIKEGSEVEVLKINGVKAIVKLV | -0.664 |
| HMTNVIPKAMAPFNGSTIIADGIKNIKDHIDNLYITVGYKGATLSEHVINKGVSAVFNTTGKGNAWWVYN | 0.343 |

| Sequence | soluble fraction (log2) |
| --- | --- |
| HMTNVLSEQESKLLERMNKAGLNAEITVKKAAQILNLSESAARNVLNRLVGKGYLTVDTSRLPFLFQR | -0.277 |
| HMTNVVSKNKAKEIAMNIINDTVLQGQTAATFKEIVKANGVYVVKIEIQGQEYTSYITKDGKIVFPYGVEV | -1.07 |
| HMTNYSFIVNENFNNKRIDQVVANHYPKISRTKVNKIIKNNLLKLNGSTFNDPSAKVKLGDQIEFENL | 0.434 |
| HMTPAKQVSAKAERWIDQLGSSDWEKREEAAAELKKLGGAAKSALEKALKNADPEVASKAEELLEALES | 0.19 |
| HMTPATVVIPKVAGQTVAEAKETLKNANFEIGEEKDESSDTVEEGRVIRTDPESGTNRKEGTKINLIVSS | 0.0198 |
| HMTPFVINVDRHGAVIINEKTVDIDEAVVLARQERSQGKSILLAGDKKAPYEAIIRVLDALKQAG | -0.758 |
| HMTPNATWQDDAQNLLRDLIQHQPVLVQISAAKRLRDQAEQISRITGGETVTREHVEAAGHALGMGVT | 0.209 |
| HMTPNRDDEHLQSLRDYYASNRRIPSLQRIAALLGFSSRSAAVKLMGRLADEGFVERTVDDDAWIPGSRFF | -1.14 |
| HMTPQDYEYLRKLLKDQSGLDLSVDKQYLLESRLVPLSRKAGLAGIPELVQKMKAGSASLTAQVVEAMTT | -0.11 |
| HMTPVFGEEETVLQAAVRGIISDTDQWTMEAEAKSMLNQLGFSDYEEKMAHMSGGQKKRVALVNALLTP | 0.116 |
| HMTQDFEPGGQVFSRGEWLTIIRVNKSNGAVSSVTTPNYSFLGYSGTMKVTPDRITDYKAPSAEEAAVAS | -0.451 |
| HMTQGRVTGDGVNVRSQPNTDSAILTRVSTGKVVELISLKDNWYNVVVNGTKGYIRADYVSPYDG | -0.904 |
| HMTQLPEVPVERGMVLEEVQSGWVGAVTRVEKSGGMHVVALEDRRGKSRSFRLGFGFLLEGQPIRLMPPAP | -1.89 |
| HMTRAETPMAFIRAMVEAYTERGLDPNQALRKAQITPSQLKSTNARVTTLQMEWMSETAMREL | -0.292 |
| HMTRDAQLAALERLMDDPSPVVRKAVLKGVQAAGTEGLLWLQQLSKNQTLGPYALALLTELR | -0.72 |
| HMTRNGTVTFFNHDKGYGFIKDVLTQESVFVHINSLSEPINEQNKVSFEIEMGPRGSNAINVKLI | -1.65 |
| HMTRTEYMAQLEKYLKKLPHKEFQEAITFFNEYFDEAGPEKETAIMEELGSPKEAASELITNILNRHI | -0.433 |
| HMTRTISKVAKELAINIETVRFYERRGLIEQPPKPELGYRHYPDETVNRIRFIKRAQELGFTLEEIANLLS | -1.66 |
| HMTRVDALDQLAAIRFSSHIFAEDQDLRMVVVDGQRIGEGDIVRDEIRLEQITETGVIFEYQGERFPIDV | -1.45 |
| HMTRYQHLAMLLEKRIAQGLYRNGERLPSVRSLSAEHGVSISTVQQAYYLLEQKQLIIPQSRSGYYVAPH | -4.46 |
| HMTSEVPVGSNVRIRASTLAGERDFEGTMLPPAGEGLTTLKLVNGYNLSYPSKDVLDIEFLGGAGE | 0.14 |
| HMTSHPTHTILDGKVHVFMRDGSPFWWGGFHFKGKYLRTSTKQKNLDSAKTIAQQWYFQKQTEIASGE | -2.85 |
| HMTSKVTVLAVNGRITVSGKEQDETVSVYDTGGRLLYQGESDVINVPRKAMYIVTVSRKSYKVIV | -1.52 |
| HMTSLAGIERFLASGAIAGVGEAMAHRLVQKFGKETLEIIEKKPSRLTEVAGVGKKTAAKIHASYMEK | -0.344 |
| HMTSLGLEGLVNTTAIATSDLRPSGWALAGERKIFVVSEGEFIDNGDKIRILTVDGNRIVVRKETNK | -0.477 |
| HMTSLTSDEEQIINVLRAEESVYINALATKSKIPLQKLLGLLIQLEFKGLIHSLPGSHYKIV | -0.221 |
| HMTSNIIIVPNVVGMTKEQATAALAAAGLNIKLSGVETTDTAAVAVKQKPSANTKVEEGSVVTVEFDLK | ≥ 1.04 |
